Experimental data: US20190177371A1 (published 2019)

B1: Peptide 15: Ac-Nle-c[Asp-(NMe)His-nal-(NMe)Arg-Trp-Lys]-NH2 (peptide)
peptide: LDHXRWK
modifications: N-terminal acetyl; Nle at 4; D-Nal(2') (nal) at 7; side-chain lactam Asp5-Lys10; C-terminal amide; backbone N-methyl on His6 and Arg8 (α-MSH 4-10 numbering)
B2: Peptide 28: Ac-Nle-c[Asp-(NMe)His-nal-(NMe)Arg-(NMe)Trp-(NMe)Lys]-NH2 (peptide)
peptide: LDHXRWK
modifications: N-terminal acetyl; Nle at 4; D-Nal(2') (nal) at 7; side-chain lactam Asp5-Lys10; C-terminal amide; backbone N-methyl on His6, Arg8, Trp9 and Lys10 (α-MSH 4-10 numbering)
B3: Peptide 32: Ac-Nle-c[Asp-(NMe)His-(NMe)nal-(NMe)Arg-(NMe)Trp-(NMe)Lys]-NH2 (peptide)
peptide: LDHXRWK
modifications: N-terminal acetyl; Nle at 4; D-Nal(2') (nal) at 7; side-chain lactam Asp5-Lys10; C-terminal amide; backbone N-methyl on His6, nal7, Arg8, Trp9 and Lys10 (α-MSH 4-10 numbering)
notes: also called Penta-N-methylated compound 32

Tests used:
[1] = biological target: T1, human melanocortin 1 receptor (human, UniProt Q01726 1-317); assay: cell-based or functional assay
T1 sequence (Q01726 whole entry): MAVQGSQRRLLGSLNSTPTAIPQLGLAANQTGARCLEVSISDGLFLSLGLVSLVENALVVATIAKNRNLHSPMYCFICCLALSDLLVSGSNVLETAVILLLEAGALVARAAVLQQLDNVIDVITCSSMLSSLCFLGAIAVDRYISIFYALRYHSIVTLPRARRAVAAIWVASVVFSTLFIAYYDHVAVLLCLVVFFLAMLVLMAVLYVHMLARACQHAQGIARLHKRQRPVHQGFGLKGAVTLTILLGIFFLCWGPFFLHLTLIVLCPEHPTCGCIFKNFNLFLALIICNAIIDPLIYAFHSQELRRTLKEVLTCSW

[2] = biological target: T1, human melanocortin 1 receptor; assay: competition binding vs [125I]-NDP-α-MSH, A375 human melanoma cells
[3] = biological target: T1, human melanocortin 1 receptor; assay: competition binding vs [125I]-NDP-α-MSH, whole HEK293 cells stably expressing the receptor

Row | EC50 (cAMP) [1] [nM] | IC50 [2] [nM] | IC50 [3] [nM] | Binder
1 | 22 | 14.8 | – | B1
2 | 20 | – | – | B2
3 | – | – | 68 | B3
